These results are taken from patent publication US20140234872A1.

This assay deals with GST-SHP-1 ΔN+CSH2 (amino acids 276-end) (human) (UniProt P29350). Nature of the assay: GST pulldown (FIG. 20B).
Chain of GST-SHP-1 ΔN+CSH2 (amino acids 276-end) (human) (P29350 276-595, stated change not applied): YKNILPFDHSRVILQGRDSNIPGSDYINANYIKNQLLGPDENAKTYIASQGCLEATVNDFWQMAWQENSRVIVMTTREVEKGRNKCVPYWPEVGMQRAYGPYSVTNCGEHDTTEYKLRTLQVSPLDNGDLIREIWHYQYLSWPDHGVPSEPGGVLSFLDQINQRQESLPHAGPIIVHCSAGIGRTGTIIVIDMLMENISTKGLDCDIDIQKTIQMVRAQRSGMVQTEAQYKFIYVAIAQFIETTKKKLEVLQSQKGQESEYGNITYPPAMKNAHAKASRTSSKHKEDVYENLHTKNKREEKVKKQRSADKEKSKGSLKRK

B1: His-GIV-CT (aa 1660-1870), wild-type, not phosphorylated (mock- or sham-treated) (protein, not shown: small tags and cut ends)
chain: SETLESRHHKIKTGSPGSEVVTLQQFLEESNKLTSVQIKSSSQENLLDEVMKSLSVSSDFLGKDKPVSCGLARSVSGKTPGDFYDRRTTKPEFLRPGPRKTEDTYFISSAGKPTPGTQGKIKLVKESSLSRQSKDSNPYATLPRASSVISTAEGTTRRTSIHDFLTKDSRLPISVDSPPAAADSNTTAASNVDKVQESRNSKSRSREQQSS
On to B1, for which the reduction of binding against full length SHP-1 worked out at 80%.
